Changes are numbered by the printed parent chain.
B1: Nanobody 11A1 (VHH)
VHH: EVQLVESGGGLVQAGGSLRLSCAASGFTLDDYAIGWFRQAPGKEREGVSCISSIDGDTVYADSVKGRFTASSDNAKNTAYLQMNSLKPEDTAVYYCAAGQGLLTAQALRWESYDYWGQGTQVTVSS
notes: llama VHH against CXCL11; not shown: C-terminal c-myc tag and (His)6 tag coded by the vector
B2: Nanobody 11D1 (VHH)
VHH: EVQLVESGGGLVQAGGSLRLSCAASGFTLNDYAIGWFRQAPGKEREGVSLISSDDGSTYYADSVKGRFTISSDNAKNTVYLQMNSLKPEDTAVYYCAAAQGLLLLSLWVPTQYDYWGQGTQVTVSS
notes: as for B1
B3: Nanobody 11B8 (VHH)
VHH: EVQLVESGGGLVQPGGSLRLSCAASGFTLDDYVIGWFRQAPGKEREGVSGISSSDGSTYYADSVKGRFTISRDNAKNTVYLQMNSLKPEDTAVYYCAAGMGVLRLWVLSKLSYDYWGQGTQVTVSS
notes: as for B1
B4: Nanobody 11G8 (VHH)
VHH: EVQLVESGGGLVQAGGSLRLSCAASGRTFSSYAMGWFRQAPGKEQEFVAAISWSGGSTYYADSVKGRFTISRDNAKNTVYLQMNSLKPEDTAVYYCAAHDVDDDESPYYSGGYYRALYDYWGQGTQVTVSS
notes: as for B1
B5: Nanobody 11E5 (VHH)
VHH: EVQLVESGGGLVQAGGSLRLSCAASGFTFDDYAIGWFRQAPGKEREGVSWISSSDKDTYYADSVKGRFTISSDNAKNTVYLQMNSLKPEDTAVYYCAAGAGLLIATIWTTQMYDYWGQGTQVTVSS
notes: as for B1
B6: Nanobody 11C7 (VHH)
VHH: EVQLVESGGGLVQAGGSLRLSCAAASGGTFTKQTISWFRQAPGKDREFVAAQWWSGLSTYFAEYADSVKGRFTISRDNAKNTAYLEMNSLKFEDTAVYYCAAGLGVVRTLIRRASSYDYWGQGTQVTVSS
notes: as for B1
B7: Nanobody 11D10 (VHH)
VHH: EVQLVESGGGLVQAGGSLRLSCAASGFTIDDYAIGWFRQAPGKEREGVSCISSSDGSTYYADSVKGRFTISSDNAKNTVYLQMNSLKPEDTAVYYCAAAQGLVVTEMFVGRSYDYWGQGTQVTVSS
notes: as for B1
B8: Nanobody 11F7 (VHH)
VHH: EVQLVESGGGLVQAGGSLRLSCAASGGTFTKQTMGWFRQTPGKDREFVAVQWWTGLSTYSAEYADSVKGRFTISRDNAKNTAYLQMNSLKFEDTAVYYCAAGLGVVRTFIRRASSYDDWGQGTQVTVSS
notes: as for B1
B9: Nanobody 11D5 (VHH)
VHH: EVQLVESGGGLVQPGGSLRLSCAASRSGLSINAMGWFRQAPGKQRELVASITRGGPTIYADSVKGRFTISGDNAKNTVYLQMNSLKPEDTAVYYCNALIDYGLGFPIEYWGQGTQVTVSS
notes: as for B1
B10: Nanobody 8H7 (VHH)
VHH: EVQLVESGGGLVQAGDSLRLSCAASGRTFSSYRMGWFRQAPGKEREFVAAISRSGASAYYADSVKGRFTSSRDNAKNTVYLQMNKLKPEDTAVYYCAASSRIGVDDPEAYGYWSQGTQVTVSS
notes: llama VHH against CCL2; not shown: C-terminal c-myc tag and (His)6 tag coded by the vector
B11: Nanobody 8H8 (VHH)
VHH: EMQLVESGGGLVQAGGSLRLSCAASGRTFSSYRMGWFRQAPEKEREFVALINRSGGSQFYSNSVKGRFTISRDNAKNTVYLQMNSLKPEDTAVYYCAAGAQMGWAEASTYDYWGQGTQVTVSS
notes: as for B10
B12: Nanobody 15C8 (VHH)
VHH: B11 VHH with M2V, L50V, N52T, Q58T
notes: as for B10
B13: Nanobody 8A8 (VHH)
VHH: B11 VHH with M2V, L50V, N52T, G56S, S57D, M102I
notes: llama VHH against CCL2; also called 8D8; 15C7; not shown: C-terminal c-myc tag and (His)6 tag coded by the vector
B14: Nanobody 15A8 (VHH)
VHH: EVQLVESGGGLVQAGGSLRLSCAASGFTFDDYAIGWFRQAPGKEREGPLCISSSDGSTYYADSVKGRFTISSDNAKNTVYLQMNSLKPEDTAVYYCAAESLGDYGLASPLPADFGSWGQGTQVTVSS
notes: as for B10
B15: Nanobody 11D2 (VHH)
VHH: B1 VHH with T28S, L29F, C50L, I54S, D57S, V59Y, A70I, A79V, T104R
notes: llama VHH against CXCL11; also called 11G1; 11H1; not shown: C-terminal c-myc tag and (His)6 tag coded by the vector
B16: Nanobody 11A3 (VHH)
VHH: EVQLVESGGGLVQAGGSLRLSCAASGFSFDDYVIGWFRQAPGKEREGVSLISSSDGSTYYADSVKGRFTISSDNAKNTVYLQMNSLKPEDTAVYYCAAGNGLLRLWMFHVSAYDYWGQGTQVTVSS
notes: as for B1
B17: Nanobody 11H2 (VHH)
VHH: B1 VHH with L29F, I54S, V59Y, A79V, M83I, T104I
notes: llama VHH against CXCL11; purified; not shown: C-terminal c-myc tag and (His)6 tag coded by the vector
B18: Nanobody 11F2 (VHH)
VHH: EVQLVESGGGLVQPGGSLRLSCAASGFTFSSYAMSWVRQAPGKGLEWVSSIYSDGSNTYYADSVKGRFTISRDNAKNTLYLQMNSLKSEDTAVYYCAKKDYAVVPLDEYDYWGQGTQVTVSS
notes: llama VHH against CXCL11; also called 38D11; not shown: C-terminal c-myc tag and (His)6 tag coded by the vector
B19: Nanobody 11C2 (VHH)
VHH: EVQLVESGGGLVQAGGSLRLPCAASGFTFDDYVIGWFRQAPGKEREGVSLISSSDGSTYYADSVKGRFTISSDNAKNTVYLQMNGLKPEDTAVYYCAATSSIPYYSGSYYPNPFEYDYWGQGTQVTVSS
notes: as for B1
B20: Nanobody 11G2 (VHH)
VHH: B5 VHH with K56G, D57S, L102F, A105T
notes: as for B1
B21: Nanobody 11E2 (VHH)
VHH: EVQLVESGGGLVQAGGSLRLSCAASGFTFDDYAIGWFRQAPGKEREGVSCISSSDDSTYYADSVKGRFTISSDTAKNTVYLQMDSLKPEDTAVYYCAKDCIIPPIGSWGQGTQVTVSS
notes: as for B1
B22: Nanobody 8A5 (VHH)
VHH: QVQLVESGGGLVQAGGSLALSCAASGIAFSIFDMAWFRQTPGKEREAVARISHGGGKDYLDSVKGRFTISRDNAKNTVTLQMTSLKPEDTAVYYCNAKNSFRNLWGQGTQVTVSS
notes: as for B10
B23: Nanobody 15H4 (VHH)
VHH: EVQLVESGGGLVQAGGSLRLSCAASGLTFSTYPMGWFRQAPGKEREFVAAINSGGSSTYYADSVKGRFTISRDNAKNTVYLQMNSLKPEDTAVYSCAVKIYSGSYSSPPGYNYWGQGTQVTVSS
notes: as for B10
B24: Nanobody 8E1 (VHH)
VHH: B23 VHH with S57Y, K76V, V79I, Y113H
notes: as for B10
B25: Nanobody 8D5 (VHH)
VHH: EVQLVESGGGLVQAGGSLRLSCAASGRTFSNYAMDWFRQAPGKEREFVAAISKSDGSTYYADSVKGRFTISRDNAKNTVYLQMNSLKPEDTAVYYCAAEGDSSPMGGVTYDYWGQGTQVTVSS
notes: as for B10
B26: Nanobody 8B2 (VHH)
VHH: EVQLVESGGGLVQAGGSLRLSCAASGGTFASYGMGWFRQYPGKEREFVAAISRSGDSTYYADSVKGRFTISRDNAKNTVYLQMNSLKPEDTAVYYCAAGRFIPQLSAYDYWGQGTQVTVSS
notes: as for B10
B27: Nanobody 15H3 (VHH)
VHH: EVQLVESGGGLVQAGGSLRLSCAASGGTFSNYAMGWFRQAPEKEREFVAAVIWRGGSTYYADSVKGRFTISRDNARNTVYLQMNSLKPEDTAVYYCAADLLGNSDYEPSSGFGSWGQGTQVTVSS
notes: as for B10
B28: Nanobody 8A7 (VHH)
VHH: B11 VHH with M2V, L50V, N52S, Q58T
notes: as for B10
B29: Nanobody 15F7 (VHH)
VHH: B11 VHH with M2V, S21P, L50V, N52S, S57D, Q58T, N62S
notes: as for B10
B30: Nanobody 15H7 (VHH)
VHH: B11 VHH with M2V, E6K, N52S, S57T, Q58T, K87E
notes: as for B10
B31: Nanobody 8E7 (VHH)
VHH: B11 VHH with M2V, R27G, L50V, N52T, Q58H, F59S
notes: as for B10
B32: Nanobody 8D7 (VHH)
VHH: B11 VHH with M2V, N52T, S57T, Q58T, K87E
notes: as for B10
B33: Nanobody 8D1 (VHH)
VHH: EVQLVESGGGLVQPGGSLRLSCAASGFNLDDYAIGWFRQAPGKEREGVACASSTDGSTAYADSVKGRFTVSRDNAKNTVYLQMNSLKPEDTAVYYCAADPSDPFCPGLYYGMDYWGKGTLVTVSS
notes: as for B10
B34: Nanobody 8E5 (VHH)
VHH: EVQLVESGGGLVQAGGSLRLSCAASGGTFSSYRMAWFRQTPGKEREFVTLISRSGGTTDYTDSVKGRFTISRDNAKNTVYLQMNSLKPEDTAVYYCAAAGSMGWNHFREYDYWGQGTQVTVSS
notes: as for B10

Target: T1, recombinant human CXCL11/I-TAC (human, UniProt O14625 22-94, biotinylated in the ELISA; 125I label in the radioligand assays)
T1 sequence (looked up): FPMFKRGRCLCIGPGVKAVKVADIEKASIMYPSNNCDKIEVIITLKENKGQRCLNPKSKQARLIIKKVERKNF
Assay: inhibition of 125I-CXCL11 binding to hCXCR3 (HEK293T cells), 10x diluted periplasm

Binder	binding result
B1	binds
B2	binds
B3	binds
B4	binds
B5	binds
B6	binds
B7	binds
B8	binds
B9	binds

Target: T2, recombinant human CCL2/MCP1 (human, UniProt P13500 24-99, 125I label in the radioligand assays)
T2 construct: Immunogen and selection antigen was the Mucin stalk Chimera (R&D 979-MC/CF)
T2 sequence (P13500 24-99 limits assumed): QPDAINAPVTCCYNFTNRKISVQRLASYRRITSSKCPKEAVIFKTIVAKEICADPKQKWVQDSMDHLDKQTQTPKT
Assay: inhibition of 125I-CCL2 binding to HCMV-US28 (HEK293T cells), 10x diluted periplasm; ELISA grade at the label

Binder	binding result
B10	binds
B11	binds
B12	binds
B13	binds
B14	binds

Target: T1, recombinant human CXCL11/I-TAC
Assay: inhibition of 125I-CXCL11 binding to hCXCR3 (HEK293T cells), 10x diluted periplasm; ELISA grade at the label

Binder	binding result
B15	binds
B16	binds
B17	binds
B18	binds
B19	binds
B20	binds
B21	binds

Target: T2, recombinant human CCL2/MCP1
Assay: ELISA, periplasmic extract on coated CCL2, anti-myc detection

Binder	binding result
B22	binds
B23	binds
B24	binds
B25	binds
B26	binds
B27	binds
B28	binds
B29	binds
B30	binds
B31	binds
B32	binds
B33	binds
B34	binds

Source: US20100092460A1 (Ablynx, published 2010)
